According to patent US20190359687A1 (Bayer, published 2019):
Where a chain is given by its changes, count along the chain named. No end group written: not given here. *: point of attachment. Biotin = O=C1N[C@H]2[C@H](CS[C@H]2CCCCC(=O)*)N1

Legend:
[1] = target: T1, human glycophorin A in the red blood cell membrane (human, UniProt P02724 20-150); test: SPR, human RBC membranes, Fab
T1 construct: whole, on cells; used for intact RBC, isolated RBC membranes and transfected cells; the assay field tells which; also called GPA; hGPA
T1 sequence (looked up): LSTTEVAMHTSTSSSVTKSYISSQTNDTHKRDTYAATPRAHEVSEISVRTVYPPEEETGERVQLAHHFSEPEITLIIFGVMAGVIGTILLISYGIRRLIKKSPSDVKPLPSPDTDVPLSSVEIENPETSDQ
Description: Kinetic analysis of the antibody binding to human red blood cell membranes was also performed using surface plasmon resonance (SPR) using a Biacore instrument. In this assay membranes prepared from human red blood cells were attached to a L1 sensor matrix and antibodies were flowed over the RBC membranes.

[2] = target: T2, GP10 peptide of the human GPA ectodomain (human, not fully specified (N-terminus)); test: ELISA, Fab 0.5 ug/ml on biotin-peptide on streptavidin plate
T2 peptide: TVYPPEEE
Excerpt: (§1) These peptides were attached to the surface of a streptavidin coated plate via a biotin moiety that was present at the N-terminus of each peptide.

[3] = target: T3, GP11 peptide of the human GPA ectodomain (human, not fully specified (N-terminus)); test: as above
T3 peptide: VYPPEEET
Excerpt: as §1

[4] = target: T4, GP12 peptide of the human GPA ectodomain (human, not fully specified (N-terminus)); test: as above
T4 peptide: YPPEEETG
Excerpt: as §1

[5] = target: T5, GP13 peptide of the human GPA ectodomain (human, not fully specified (N-terminus)); test: as above
T5 peptide: PPEEETGE
Excerpt: as §1

[6] = target: T6, GP14 peptide of the human GPA ectodomain (human, not fully specified (N-terminus)); test: as above
T6 peptide: PEEETGER
Excerpt: as §1

[7] = target: T7, GP15 peptide of the human GPA ectodomain (human, not fully specified (N-terminus)); test: as above
T7 peptide: EEETGERV
Excerpt: as §1

[8] = target: T8, GP16 peptide of the human GPA ectodomain (human, not fully specified (N-terminus)); test: as above
T8 peptide: EETGERVQ
Excerpt: as §1

[9] = target: T9, GP5 peptide of the human GPA ectodomain (human, N-terminal biotin); test: as above
T9 construct: Residues 42 to 61 of the human GPA extracellular domain
Excerpt: as §1

[10] = target: T10, GP7 peptide of the human GPA ectodomain (human, not fully specified (N-terminus)); test: as above
T10 peptide: SVRTVYPP
Excerpt: as §1

[11] = target: T11, GP8 peptide of the human GPA ectodomain (human, not fully specified (N-terminus)); test: as above
T11 peptide: VRTVYPPE
Excerpt: as §1

[12] = target: T12, GP9 peptide of the human GPA ectodomain (human, not fully specified (N-terminus)); test: as above
T12 peptide: RTVYPPEE
Excerpt: as §1

[13] = target: T2, GP10 peptide of the human GPA ectodomain; test: ELISA, Fab 0.05 ug/ml on biotin-peptide on streptavidin plate
Excerpt: as §1

[14] = target: T3, GP11 peptide of the human GPA ectodomain; test: as above
Excerpt: as §1

[15] = target: T4, GP12 peptide of the human GPA ectodomain; test: as above
Excerpt: as §1

[16] = target: T5, GP13 peptide of the human GPA ectodomain; test: as above
Excerpt: as §1

[17] = target: T6, GP14 peptide of the human GPA ectodomain; test: as above
Excerpt: as §1

[18] = target: T7, GP15 peptide of the human GPA ectodomain; test: as above
Excerpt: as §1

[19] = target: T8, GP16 peptide of the human GPA ectodomain; test: as above
Excerpt: as §1

[20] = target: T9, GP5 peptide of the human GPA ectodomain; test: as above
Excerpt: as §1

[21] = target: T10, GP7 peptide of the human GPA ectodomain; test: as above
Excerpt: as §1

[22] = target: T11, GP8 peptide of the human GPA ectodomain; test: as above
Excerpt: as §1

[23] = target: T12, GP9 peptide of the human GPA ectodomain; test: as above
Excerpt: as §1

[24] = target: T13, Cynomolgus monkey glycophorin A on Cynomolgus monkey red blood cells or red blood cell membranes (Cynomolgus monkey); test: Fab 7 ug/ml on intact cyno RBC, unbound Fab by ELISA; pre-dilution
T13 construct: whole, on cells; also called Cyno RBC; Cynomolgus monkey RBC membranes
Description: (§2) The binding of affinity matured Fab antibodies to intact Cynomolgus monkey RBC was measured. Cynomolgus monkey RBC were isolated from fresh anti-coagulated blood by centrifugation through a ficol gradient and washing in PBS buffer. RBC diluted to 1/10th of normal hematocrit were incubated with the Fab at a final concentration of 7 ug/ml for 1 hour at room temperature on a rotating shaker after which a sample was taken and the RBC were pelleted by centrifugation and the supernatant was collected. The remaining RBC suspension was diluted 200-fold in PBS buffer and incubated for a total of 2 hours at room temperature on a rotating shaker and samples were removed at 0, 5 min, 20 min, 1 h and 2 h and the RBC pelleted and the supernatant collected. […] The amount of Fab in the supernatants was then measured using an ELISA assay and the results used to calculate the percentage of the input Fab that was bound to the RBC.

[25] = target: T14, human glycophorin A on human red blood cells or red blood cell membranes (human, UniProt P02724 20-150); test: Fab 7 ug/ml on intact human RBC, unbound Fab by ELISA; pre-dilution
T14 construct: whole, on cells; also called hRBC; human RBC membranes
T14 sequence (looked up): T1 sequence (looked up)
Description: (§3) The binding of affinity matured Fab antibodies to intact human RBC was also measured. Human RBC were isolated from fresh anti-coagulated normal human blood by centrifugation through a ficol gradient and washing in PBS buffer. RBC diluted to 1/10th of normal hematocrit were incubated with purified Fab antibodies at a final concentration of 7 ug/ml for 1 hour at room temperature on a rotating shaker after which a sample was taken and the RBC were pelleted by centrifugation and the supernatant was collected. The remaining RBC suspension was diluted 200-fold in PBS buffer and incubated for a total of 2 hours at room temperature on a rotating shaker and samples were removed at 0, 5 min, 20 min, 1 h and 2 h and the RBC pelleted and the supernatant collected. The amount of Fab in the supernatants was then measured using an ELISA assay and the results used to calculate the percentage of the input Fab that was bound to the RBC. […] The percentage that remains bound after 200-fold dilution of the RBC suspension is an indication of the overall strength of the binding to human RBC.

[26] = target: T13, Cynomolgus monkey glycophorin A on …; test: Fab on intact cyno RBC, unbound Fab by ELISA; 0 min after 200-fold dilution
[27] = target: T13, Cynomolgus monkey glycophorin A on …; test: Fab on intact cyno RBC, unbound Fab by ELISA; 5 min after 200-fold dilution
Description: as §2

[28] = target: T14, human glycophorin A on human red blood …; test: Fab on intact human RBC, unbound Fab by ELISA; 0 min after 200-fold dilution
[29] = target: T14, human glycophorin A on human red blood …; test: Fab on intact human RBC, unbound Fab by ELISA; 5 min after 200-fold dilution
[30] = target: T13, Cynomolgus monkey glycophorin A on …; test: Fab on intact cyno RBC, unbound Fab by ELISA; 20 min after 200-fold dilution
[31] = target: T13, Cynomolgus monkey glycophorin A on …; test: Fab on intact cyno RBC, unbound Fab by ELISA; 60 min after 200-fold dilution
Description: as §2

[32] = target: T14, human glycophorin A on human red blood …; test: Fab on intact human RBC, unbound Fab by ELISA; 20 min after 200-fold dilution
[33] = target: T14, human glycophorin A on human red blood …; test: Fab on intact human RBC, unbound Fab by ELISA; 60 min after 200-fold dilution
Description: as §3

[34] = target: T13, Cynomolgus monkey glycophorin A on …; test: Fab on intact cyno RBC, unbound Fab by ELISA; 120 min after 200-fold dilution
[35] = target: T14, human glycophorin A on human red blood …; test: Fab on intact human RBC, unbound Fab by ELISA; 120 min after 200-fold dilution
[36] = target: T15, GP7 peptide (human); test: peptide ELISA, Fab
T15 peptide: Biotin-SVRTVYPP
Excerpt: as §1

[37] = target: T16, GP10 peptide (human); test: peptide ELISA, Fab
T16 peptide: Biotin-TVYPPEEE
Excerpt: as §1

[38] = target: T17, GP11 peptide (human); test: peptide ELISA, Fab
T17 peptide: Biotin-VYPPEEET
Excerpt: as §1

[39] = target: T18, GP12 peptide (human); test: peptide ELISA, Fab
T18 peptide: Biotin-YPPEEETG
Excerpt: as §1

[40] = target: T19, GP13 peptide (human); test: peptide ELISA, Fab
T19 peptide: Biotin-PPEEETGE
Excerpt: as §1

[41] = target: T20, GP14 peptide (human); test: peptide ELISA, Fab
T20 peptide: Biotin-PEEETGER
Excerpt: as §1

[42] = target: T21, GP15 peptide (human); test: peptide ELISA, Fab
T21 peptide: Biotin-EEETGERV
Excerpt: as §1

[43] = target: T22, GP16 peptide (human); test: peptide ELISA, Fab
T22 peptide: Biotin-EETGERVQ
Excerpt: as §1

B1: TPP-5907 Fab (Fab, V domains shown)
VH: EVQLVQSGAEVKKPGASVKVSCKASGYTFTTYTIHWVRQAPGQGLEWMGYINPGSGYTRYNPKFKGRVTMTRDKSTSTAYMELRSLRSDDTAVYYCQTGTRDYWGQGTTVTVSS
VL: DIQLTQSPSFLSASVGDRVTITCRASSSVSYIYWFQQKPGKAPKLLIYATSTLQSGVPSRFSGSGSGTEYTLTISSLQPEDFATYYCHQRNSFPYTFGQGTKLEIKR
fold improvement of affinity against the parental antibody [1]: ~200 fold

B2: TPP-7792, affinity matured 6C12 Fab (Fab, V domains shown)
VH: B1 VH with T33A, G54S, Q97W
VL: DIQLTQSPSFLSASVGDRVTITCRASSSVRYIYWFQQKPGKAPKLLIYATSFRQSGVPSRFSGSGSGTEYTLTISSLQPEDFATYYCHQRNSFPYTFGQGTKLEIK
notes: Tested as Fab with a 6xHIS tag
binding signal in ELISA (relative light units) [2]: 71 RLU | binding signal in ELISA (relative light units) [3]: 2 RLU | binding signal in ELISA (relative light units) [4]: 0 RLU | binding signal in ELISA (relative light units) [5]: 0 RLU | binding signal in ELISA (relative light units) [6]: 0 RLU | binding signal in ELISA (relative light units) [7]: 0 RLU | binding signal in ELISA (relative light units) [8]: 0 RLU | binding signal in ELISA (relative light units) [9]: 7230 RLU | binding signal in ELISA (relative light units) [10]: 1 RLU | binding signal in ELISA (relative light units) [11]: 5130 RLU | binding signal in ELISA (relative light units) [12]: 534 RLU | binding signal in ELISA (relative light units) [13]: 14 RLU | binding signal in ELISA (relative light units) [14]: 0 RLU | binding signal in ELISA (relative light units) [15]: -1 RLU | binding signal in ELISA (relative light units) [16]: -1 RLU | binding signal in ELISA (relative light units) [17]: -1 RLU | binding signal in ELISA (relative light units) [18]: -1 RLU | binding signal in ELISA (relative light units) [19]: -1 RLU | binding signal in ELISA (relative light units) [20]: 3500 RLU | binding signal in ELISA (relative light units) [21]: 0 RLU | binding signal in ELISA (relative light units) [22]: 291 RLU | binding signal in ELISA (relative light units) [23]: 18 RLU | percentage of input antibody bound [24]: 92% | percentage of input antibody bound [25]: 98% | percentage of input antibody bound [26]: 96% | percentage of input antibody bound [27]: 94% | percentage of input antibody bound [28]: 97% | percentage of input antibody bound [29]: 97% | percentage of input antibody bound [30]: 93% | percentage of input antibody bound [31]: 92% | percentage of input antibody bound [32]: 96% | percentage of input antibody bound [33]: 97% | percentage of input antibody bound [34]: 89% | percentage of input antibody bound [35]: 96%

B3: TPP-7792 Fab (Fab, V domains shown)
VH: B1 VH with T33A, G54S, Q97W
VL: B2 VL
notes: as m92
binding result [36]: no binding (tested: 0.5 ug/ml) | binding result [37]: no binding (tested: 0.5 ug/ml) | binding result [38]: no binding (tested: 0.5 ug/ml) | binding result [39]: no binding (tested: 0.5 ug/ml) | binding result [40]: no binding (tested: 0.5 ug/ml) | binding result [41]: no binding (tested: 0.5 ug/ml) | binding result [42]: no binding (tested: 0.5 ug/ml) | binding result [43]: no binding (tested: 0.5 ug/ml)

B4: TPP-7790 Fab (Fab, V domains shown)
VH: B1 VH with T33A, G54S, G66H, Q97W
VL: B2 VL with R53L
notes: as m92
binding result [36]: no binding (tested: 0.5 ug/ml) | binding result [37]: no binding (tested: 0.5 ug/ml) | binding result [38]: no binding (tested: 0.5 ug/ml) | binding result [39]: no binding (tested: 0.5 ug/ml) | binding result [40]: no binding (tested: 0.5 ug/ml) | binding result [41]: no binding (tested: 0.5 ug/ml) | binding result [42]: no binding (tested: 0.5 ug/ml) | binding result [43]: no binding (tested: 0.5 ug/ml)
